From patent US10308692B2, “Variants of GAL2 transporter and their uses” (Johann Wolfgang Goethe-Universität Frankfurt, priority 2014, dated 2019)
Where a chain is given by its changes, count along the chain named. Numbers in names are those of the source.

B1: N376Y + M435I: Gal2 variant with amino acid substitutions N376Y and M435I (protein, UniProt P13181 1-574, looked up, variant N376Y M435I)
Galactose transporter: MAVEENNMPVVSQQPQAGEDVISSLSKDSHLSAQSQKYSNDELKAGESGSEGSQSVPIEIPKKPMSEYVTVSLLCLCVAFGGFMFGWDTGTISGFVVQTDFLRRFGMKHKDGTHYLSNVRTGLIVAIFNIGCAFGGIILSKGGDMYGRKKGLSIVVSVYIVGIIIQIASINKWYQYFIGRIISGLGVGGIAVLCPMLISEIAPKHLRGTLVSCYQLMITAGIFLGYCTNYGTKSYSNSVQWRVPLGLCFAWSLFMIGALTLVPESPRYLCEVNKVEDAKRSIAKSNKVSPEDPAVQAELDLIMAGIEAEKLAGNASWGELFSTKTKVFQRLLMGVFVQMFQQLTGNNYFFYYGTVIFKSVGLDDSFETSIVIGVVYFASTFFSLWTVENLGHRKCLLLGAATMMACMVIYASVGVTRLYPHGKSQPSSKGAGNCIIVFTCFYIFCYATTWAPVAWVITAESFPLRVKSKCMALASASNWVWGFLIAFFTPFITSAINFYYGYVFMGCLVAMFFYVFFFVPETKGLSLEEIQELWEEGVLPWKSEGWIPSSRRGNNYDLEDLQHDDKPWYKAMLE
B2: N376F + M435I: Gal2 variant with amino acid substitutions N376F and M435I (protein, UniProt P13181 1-574, looked up, variant N376F M435I)
Galactose transporter: B1 Galactose transporter with Y376F
B3: N376F: Gal2 variant with amino acid substitution N376F (protein, UniProt P13181 1-574, looked up, variant N376F)
Galactose transporter: B1 Galactose transporter with Y376F, I435M
B4: Gal2 WT: wild-type protein Gal2 of S. cerevisiae CEN.PK2-1C, SEQ ID NO: 1, 574 amino acids, galactose transporter (protein, UniProt P13181 1-574, looked up)
Galactose transporter: B1 Galactose transporter with Y376N, I435M
B5: N376Y: Gal2 variant with amino acid substitution N376Y (protein, UniProt P13181 1-574, looked up, variant N376Y)
Galactose transporter: B1 Galactose transporter with I435M
B6: Gal2_M435I: M435I exchange introduced into wild-type Gal2 (protein, UniProt P13181 1-574, looked up, variant M435I)
Galactose transporter: B1 Galactose transporter with Y376N

Assays:
Type in all cases: cell-based, Saccharomyces cerevisiae
AFY10 [1] = assay: Growth test in liquid media and fermentation; conditions: for xylose concentration of the supernatant decreased during the fermentation to: HPLC
Experimental: The strain AFY10, which was transformed with YEp181_pHXT7-opt.XI_Clos and p426H7-GAL2_wt (WT) or p426H7-GAL2_ep3.1 (ep3.1) or p426-GAL2_N376Y+M435I (M435I), was incubated in 150 ml SCE-ura-leu+G418. This was the preculture which was used to start the fermentation with an OD600 of 0.6 in 30 ml SC-ura-leu with 0.6% xylose (A) or with 0.6% xylose with 2% glucose (B). The cultures were incubated at 180 rpm and 30° for seven days. Samples were taken for growth measurements as well as metabolite analysis.
For analysis of metabolites cell-free samples (5-10 min, 4° C., 16000×g) were mixed with 1/9 volumes of 50% (w/v) 5-sulfosalicylic acid and centrifuged (5-10 min, 4° C., 16000×g). The supernatant was analyzed in an UHPLC+ system by Thermo Scientific (Dionex UltiMate 3000) equipped with a HyperREZ XP Carbohydrate H^+8 μm column and a refractive index detector (Thermo Shodex RI-101). Separation was carried out at column temperature of 65° C. with 5 mM sulfuric acid as mobiles phase with a flow rate of 0.6 ml/min. Chromeleon 6.80 software was used to control the system and to analyze the data. Five standards (mixtures of D-glucose, D-xylose, xylitol, acetate, glycerol and ethanol with concentrations of 0.01-3% (w/v)) were analyzed for quantification of the different compounds.
To investigate the growth difference and the xylose consumption of the mutants in comparison to the wild type and the error prone mutant, an anaerobic growth test in liquid media was carried out. For this purpose AFY10 cells were co-transformed with the vector with the respective GAL2 sequence and YEp181_pHXT7-opt.XI_Clos and inoculated in SCE-ura-leu+G418 to have an OD600 of 0.6 in 30 ml SC-ura-leu with 0.6% xylose or with 0.6% xylose with 2% glucose. The OD600 was measured regularly during five days, the growth rate μ was determined and the metabolites of the samples were examined, whereby the samples were diluted 1:5 for this reason.

EBY.VW4000 [2] = assay: Xylose uptake assay with radioactively labelled xylose; conditions: for xylose uptake rate compared to wild type: FIGS. 7 and 8; for Vmax: xylose uptake, Michaelis-Menten fit (GraphPad Prism), three replicates, figures give velocity in nmol xylose per minute per milligram cell dry mass
Text: FIG. 7: Xylose uptake assay of Gal2_N376Y, N376Y+M435I and Gal2 wild type in EBY.VW4000 (three independent replicates). The uptake velocity is shown in nmol xylose per minute per milligram cell dry mass.
FIG. 8: Xylose uptake assay of Gal2_N376F, N376F+M435I and Gal2 wild type in EBY.VW4000 (three independent replicates). The uptake velocity is shown in nmol xylose per minute per milligram cell dray mass.
Sugar uptake assays were done as described by Bisson et al. (Bisson and Fraenkel, 1983) with modifications according to Walsh et al. (Walsh et al., 1994).
Transformants of strain EBY.VW4000 were grown in selective YEPE to an OD of 1.1-1.6, harvested by centrifugation and washed twice in ice-cold uptake-buffer (RT, 3 min, 3000×g). Cells were kept on ice from here on. The cell pellet was resuspended in ice-cold uptake-buffer to a concentration of 60 mgww/ml and aliquoted to 110 μl. One cell suspension aliquot and one sugar solution were incubated in a water bath at 30° C. for 4-5 min. 100 μl of the cell suspension were pipetted to the sugar solution (50 μl), mixed briefly by pipetting and incubated for 5 (D-[U-^14C]-glucose) or 20 sec (D-[1-^14C]-xylose). The uptake reaction was stopped by transferring 100 μl of the mixture into 10 ml ice-cold quenching-buffer, which was immediately filtered through a Durapore membrane filter (0.22 μm pore size, Millipore). The filter was washed twice with 10 ml ice-cold quenching-buffer, transferred to a scintillation vial containing 4 ml scintillation cocktail (Rotiszint eco plus, Roth) and shaken thoroughly. Additionally to this filter sample (cpmfilter), 10 μl of each reaction were transferred directly to a scintillation vial with 4 ml scintillation cocktail for determination of the total counts in the reaction (cpmtotal). To determine a value for sugar that is bound unspecifically to the cell surface or the filter (cpmblank) a few samples of 33,3 μl sugar solution and 66,6 μl cell suspension were mixed in 10 ml icecold quenching buffer and treated as described above. Radioactivity of all vials was analysed in an Wallac 1409 liquid scintillation counter.
Stocksolutions of 2M, 500 mM or 20 mM glucose or xylose (in H2O) were used to prepare the sugar solutions for the assays (threefold of the desired concentration in the uptake reaction (S, substrate concentration), 50 μl aliquots). Uptake was measured at sugar concentrations 0.2, 1, 5, 25 and 100 mM for glucose and 1, 5, 25, 66, 100, 200 and 500 mM for xylose. Inhibition of xylose uptake by glucose was measured at 25, 66 and 100 mM xylose with additional 25 and 100 mM unlabelled glucose. Sugar solutions contained 0.135 to 0.608 μCi of D-[U-^14C]-glucose (290-300 mCi/mmol) or D-[1-^14C]-xylose (55 mCi/mmol) (American Radiolabeled Chemicals Inc., St. Louis, Mo., USA).
The amount of sugar (Asugar in nmol) taken up during the incubation time (t, in seconds) at a certain sugar concentration (S, in mM): Asugar=((cpmsample−cpmblank)/(cpmtotal·10))·S·100 μl
Transport velocity (in nmol·min^−1·mgww^−1) calculated per milligrams of cell (m, in mgww): V=(Asugar·60 s)/(t·m)
Calculation of Km (Michaelis constant), Vmax (maximal initial uptake velocity) and Ki (inhibitor constant for competitive inhibition) was done by nonlinear regression analysis and global curve fitting in Prism 5 (GraphPad Software, Inc.) with values of three independent measurements.
Xylose uptake of Gal2_N376F, N376F+M435I, N376Y und N376Y+M435I was characterized with a sugar uptake assay. The relevant plasmids were transformed in strain EBY.VW4000. Cells were cultivated in SCM-ura until they reached the exponential growth phase (OD600˜0.6). Then cells were harvested, concentrated to the same OD600 (OD600 35-40), separated into different aliquots and stored on ice.
Three uptake assays (in tripicates) were performed with different concentrations of radioactively labelled xylose. Data were collected and fittet with GraphPad Prism according to Michaelis Menten (FIGS. 7 and 8).

AFY10 [3] = assay: Serial dilution drop test on xylose and xylose-glucose media; conditions: for growth on low xylose: 0.2% (2 g/l) xylose; for growth on high xylose: 2% (20 g/l) xylose, compared within the same drop test
Experimental: The transformants were cultivated in 5 ml SCE-ura-leu with 2% ethanol at 30°, washed with water and adjusted to an OD600 of 1. Thereof it followed a serial dilution. 5 μl were dropped onto the respective media and it was incubated for five days at 30°. As a control for the dilution SCE-ura-leu with 2% ethanol was taken. The cells of the mutated transporters were dropped onto SCX-ura-leu with 0.2% and 2% D-xylose, as well as SC-ura-leu with 1% D-xylose with 4% D-glucose and SC-ura-leu with 0.2% D-xylose and 2% D-glucose to test their functionality. Furthermore the wild type and Gal2_ep3.1 were used for comparison.
FIG. 5: Drop test of Gal2_M435I in AFY10 after five days at 30°. Several dilutions were dropped from left to right (undiluted, 1:10, 1:100, 1:1000).
FIG. 6: Drop test of Gal2_N376F, N376F+M435I and N376Y+M435I in AFY10 after five days at 30°. Several dilutions were dropped from left to right (undiluted, 1:10, 1:100, 1:1000). But on 20 g/l xylose the order was different (undiluted, 1:100, 1:1000, 1:10).
(§1) For easy comparison of growth of different S. cerevisiae strains under various growth conditions a serial dilution spot assay was performed. Cells were grown in liquid culture to exponential phase in appropriate medium, collected by centrifugation (2000×g, 2 min), washed twice with sterile water and then resuspended to an OD600 of 1.0 in selective medium without carbon source. From this cell suspension a ten-fold serial dilution was prepared in selective medium (four dilution steps). 6 μl of each cell suspension were spotted on plates of the media to be examined and allowed to dry. Plates were incubated at 30° C.
To characterize the different constructs which all were verified by sequencing they were transformed together with vector YEp181_pHXT7-optXI_Clos into competent AFY10 cells and drop tests were performed.

EBY.VW4000 [4] = assay: Serial dilution drop test on glucose and galactose media
Experimental: The transformants were cultivated in 5 ml SCM-ura with 20 g/l maltose at 30°, washed with water and adjusted to an OD600 of 1. Thereof it followed a serial dilution. 5 μl were dropped onto the respective media and it was incubated for three days at 30°. As a control for the dilution SCM-ura with 20 g/l maltose was taken. The cells of the mutated transporters were dropped onto SCD-ura with 0.2% and 2% glucose, as well as SCG-ura with 0.2% and 2% D-galactose to test their functionality. Furthermore the wild type, Gal2_ep3.1 and Gal2_N376Y were used for comparison.
FIG. 4: Drop test of Gal2_M435I in EBY.VW4000 after three days at 30°. Several dilutions from left to right were dropped (undiluted, 1:10, 1:100, 1:1000).
as §1

[5] = start 0.6% xylose with 2% glucose
[6] = drop test, FIG. 4, versus wild-type Gal2

| Molecule | xylose concentration of the supernatant decreased during the fermentation to (AFY10 [1]; [5]) [%] | xylose uptake rate compared to wild type (EBY.VW4000 [2]) | Vmax (EBY.VW4000 [2]) | growth on low xylose (AFY10 [3]) | growth on high xylose (AFY10 [3]) | also measured |
| --- | --- | --- | --- | --- | --- | --- |
| B1 | 0.37 | strongly improved | 99.61 | better growth | best growth | growth rate (AFY10 [1]; 0.6% xylose): 0.014 h⁻¹; growth rate (AFY10 [1]; 0.6% xylose with 2% glucose): 0.015 h⁻¹; xylose concentration of the supernatant decreased during the fermentation to (AFY10 [1]; start 0.6% xylose): 0.35%; growth on low xylose with glucose (AFY10 [3]; 0.2% xylose with 2% glucose): better growth; growth on xylose with glucose (AFY10 [3]; 1% xylose with 4% glucose (10 g/l xylose plus 40 g/l glucose)): best growth |
| B2 | – | reduced uptake rate | 13.81 | grow the best | – | – |
| B3 | – | – | 25.86 | better than that of Gal2_N376Y+M435I | – | – |
| B4 | 0.53 | – | 63.43 | best growth | – | OD600 tend (AFY10 [1]; [Xyl+Glu]: 0.6% xylose with 2% glucose): 0,52; OD600 tend (AFY10 [1]; [Xyl]: 0.6% xylose without glucose): 0,86 |
| B5 | – | strong reduction | 11.92 | – | – | – |
| B6 | – | – | – | No growth | slow growth | growth on glucose (EBY.VW4000 [4]; 2 g/l and 20 g/l glucose): much slower; uptake of galactose (EBY.VW4000 [4]; [6]): no effect; uptake of glucose (EBY.VW4000 [4]; [6]): strongly reduced; growth on xylose-glucose mixtures (AFY10 [3]; FIG. 5): No growth; uptake of xylose (AFY10 [3]; drop test, FIG. 5): reduced |
